Where a chain is given by its changes, count along the chain named. Names may count otherwise.
Tests used:
[1] = target: the molecule itself; experiment: SEC; S200 SEC of the soluble, purified His-tagged SepSecS samples; tetramer peak at ~70 min, 'early' peak at ~55 min; self-association
[2] = target: the molecule itself; experiment: crystal structure; holo T325S, sitting drop at +12 °C, lithium citrate and PEG 3,350; orthorhombic, half of the tetramer in the asymmetric unit
[3] = target: the molecule itself; experiment: crystal structure; binary complexes with human tRNASec, sitting drop at +12 °C, sodium cacodylate, lithium citrate, PEG 3,350; trigonal, two SepSecS dimers and one tRNASec in the asymmetric unit

B1: human O-phosphoseryl-tRNASec:selenocysteinyl-tRNASec synthase (SepSecS), wild type (enzyme)
chain: MNRESFAAGERLVSPAYVRQGCEARRSHEHLIRLLLEKGKCPENGWDESTLELFLHELAIMDSNNFLGNCGVGEREGRVASALVARRHYRFIHGIGRSGDISAVQPKAAGSSLLNKITNSLVLDIIKLAGVHTVANCFVVPMATGMSLTLCFLTLRHKRPKAKYIIWPRIDQKSCFKSMITAGFEPVVIENVLEGDELRTDLKAVEAKVQELGPDCILCIHSTTSCFAPRVPDRLEELAVICANYDIPHIVNNAYGVQSSKCMHLIQQGARVGRIDAFVQSLDKNFMVPVGGAIIAGFNDSFIQEISKMYPGRASASPSLDVLITLLSLGSNGYKKLLKERKEMFSYLSNQIKKLSEAYNERLLHTPHNPISLAMTLKTLDEHRDKAVTQLGSMLFTRQVSGARVVPLGSMQTVSGYTFRGFMSHTNNYPCAYLNAASAIGMKMQDVDLFIKRLDRCLKAVRKERSKESDDNYDKTEDVDIEEMALKLDNVLLDTYQDASS
notes: human SepSecS (SEPSECS) cloned into pQE80 with an N-terminal His-tag; PLP cofactor covalently attached to Lys284; Band at ~60 kDa on SDS-PAGE; also called WT SepSecS; WT; not shown: His6, N-terminal, kept
stoichiometry N [1]: 4

B2: human SepSecS Thr325Ser variant (enzyme)
chain: B1 chain with T325S
notes: human SepSecS (SEPSECS) in pQE80 with an N-terminal His-tag, pathogenic variant made by site-directed mutagenesis; Mutation found in patients (PCH2D); also called T325S; T325S70; source: E. coli SoluBL21(DE3), purified from the soluble fraction, S200 SEC (70 min and 55 min peaks); not shown: His6, N-terminal, kept
stoichiometry N [2]: 4

B3: human SepSecS Tyr334Cys variant (enzyme)
chain: B1 chain with Y334C
notes: human SepSecS (SEPSECS) in pQE80 with an N-terminal His-tag, pathogenic variant made by site-directed mutagenesis; Mutation found in patients (PCH2D); also called Y334C; Y334C70; not shown: His6, N-terminal, kept
stoichiometry N [3]: 4

— publication PMC5006159, “Structural basis for early-onset neurological disorders caused by mutations in human selenocysteine synthase” (Scientific Reports, 2016)
